biological target: full-length wild-type p97 (^FLp97^wt) (UniProt P55072); assay: GST pull-down; conditions: 2 mM AMP-PNP; n=3; parent: est. 1.0; read off a plot
Sequence (P55072 whole entry): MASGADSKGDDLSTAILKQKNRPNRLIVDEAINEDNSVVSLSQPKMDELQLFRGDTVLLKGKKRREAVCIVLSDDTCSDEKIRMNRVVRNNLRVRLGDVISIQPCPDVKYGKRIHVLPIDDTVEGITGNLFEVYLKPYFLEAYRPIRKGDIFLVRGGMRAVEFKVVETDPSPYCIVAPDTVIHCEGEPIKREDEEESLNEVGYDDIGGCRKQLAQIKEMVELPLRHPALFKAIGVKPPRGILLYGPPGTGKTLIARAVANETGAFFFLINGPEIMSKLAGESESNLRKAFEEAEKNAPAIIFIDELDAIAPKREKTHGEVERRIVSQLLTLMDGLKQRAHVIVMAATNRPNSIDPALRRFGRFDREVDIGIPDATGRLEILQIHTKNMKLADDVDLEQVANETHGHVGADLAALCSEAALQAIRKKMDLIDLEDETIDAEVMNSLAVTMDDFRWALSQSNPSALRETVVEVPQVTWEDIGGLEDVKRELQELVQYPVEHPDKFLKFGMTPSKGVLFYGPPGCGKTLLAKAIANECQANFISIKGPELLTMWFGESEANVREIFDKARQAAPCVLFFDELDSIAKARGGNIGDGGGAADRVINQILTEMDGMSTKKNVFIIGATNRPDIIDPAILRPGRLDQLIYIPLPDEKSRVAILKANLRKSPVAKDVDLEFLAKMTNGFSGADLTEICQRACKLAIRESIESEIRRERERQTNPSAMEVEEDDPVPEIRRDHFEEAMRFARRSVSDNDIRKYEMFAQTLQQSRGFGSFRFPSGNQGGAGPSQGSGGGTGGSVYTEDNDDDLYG

ratio to parent	Substance
0.24	GST-tagged VIMP-N10 R78A
0.87	GST-tagged VIMP-N10 Q79A
0.24	GST-tagged VIMP-N10 M89A
0.17	GST-tagged VIMP-N10 L93A
0.14	GST-tagged VIMP-N10 L82A
0.8	GST-tagged VIMP-N10 K77A
0.14	GST-tagged VIMP-N10 K88A
0.07	GST-tagged VIMP-N10 R86A
0.04	GST-tagged VIMP-N10 V97A

biological target: Np97 (N domain alone of wild-type p97) (UniProt P55072); assay: ITC; VIMPx titrated into p97; iTC200, 25 C; 50 mM Tris pH 8.0, 150 mM NaCl, 2 mM MgCl2, 5% glycerol; no nucleotide added; one-site model; conditions: not given
Sequence (P55072 whole entry): as above

Kd [µM]	stoichiometry N	Substance
6.58	1.27	VIMPx (VCP-interacting membrane protein, residues 49-122) (from UniProt Q9BQE4 49-122) (domain or fragment)

biological target: VIMP of canine pancreas microsomes (dog (endogenous in canine pancreas microsomes)); assay: co-IP; immunodepletion: canine pancreas microsomes solubilized in 1% deoxyBigCHAP, supernatant incubated three times with Protein A beads containing anti-VIMP antibodies; unbound fractions immunoblotted; conditions: not given

percent of microsome-associated p97 lost by co-depletion with VIMP [%]	Substance
< 90	ER membrane-associated p97 of canine pancreas microsomes (natural protein)

From paper PMC5725882
